The supplement of paper PMC10065799, “High-throughput profiling of sequence recognition by tyrosine kinases and SH2 domains using bacterial peptide display” (eLife, 2023)

How the values were obtained:
c-Src SH2 = test: SH2 binding enrichment of the phosphorylated peptide, bacterial display (enrichment ratio); higher = better substrate or ligand; peptides without Tyr show the background
Grb2 SH2 = Grb2 SH2 (UniProt P62993); test: as above
SHP2-C SH2 = test: as above
EPHB1 = EPHB1 (UniProt P54762); test: phosphorylation enrichment, bacterial display (enrichment ratio); higher = better substrate or ligand; peptides without Tyr show the background
EPHB2 = EPHB2 (UniProt P29323); test: as above
Hck = Hck (UniProt P08631); test: as above
Fyn = Fyn (UniProt P06241); test: as above
c-Src = test: as above
Fes = Fes (UniProt P07332); test: as above
c-Abl (mouse) = test: as above
Jak2 = Jak2 (UniProt O60674); test: as above
FGFR1 = FGFR1 (UniProt P11362); test: as above
MERTK = MERTK (UniProt Q12866); test: as above
FGFR3 = FGFR3 (UniProt P22607); test: as above
Fer (mouse) = test: as above
AncSZ = test: as above
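Wherever SH2 binding enrichment of the phosphorylated peptide, bacterial display is given: peptide library displayed on the E. coli surface as eCPX fusions, selected cells deep-sequenced, score is each peptide's frequency after selection divided by its frequency in the input.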
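Wherever phosphorylation enrichment, bacterial display is given: 11-residue human phosphosite peptides and single-mutation variants displayed on the E. coli surface, counted by deep sequencing, each peptide's frequency after selection divided by its frequency in the unselected input library; frequency after pTyr selection over input frequency; kinase dosed for 20-30% of maximal phosphorylation in three min.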

Sequence of Fyn (P06241 whole entry, looked up): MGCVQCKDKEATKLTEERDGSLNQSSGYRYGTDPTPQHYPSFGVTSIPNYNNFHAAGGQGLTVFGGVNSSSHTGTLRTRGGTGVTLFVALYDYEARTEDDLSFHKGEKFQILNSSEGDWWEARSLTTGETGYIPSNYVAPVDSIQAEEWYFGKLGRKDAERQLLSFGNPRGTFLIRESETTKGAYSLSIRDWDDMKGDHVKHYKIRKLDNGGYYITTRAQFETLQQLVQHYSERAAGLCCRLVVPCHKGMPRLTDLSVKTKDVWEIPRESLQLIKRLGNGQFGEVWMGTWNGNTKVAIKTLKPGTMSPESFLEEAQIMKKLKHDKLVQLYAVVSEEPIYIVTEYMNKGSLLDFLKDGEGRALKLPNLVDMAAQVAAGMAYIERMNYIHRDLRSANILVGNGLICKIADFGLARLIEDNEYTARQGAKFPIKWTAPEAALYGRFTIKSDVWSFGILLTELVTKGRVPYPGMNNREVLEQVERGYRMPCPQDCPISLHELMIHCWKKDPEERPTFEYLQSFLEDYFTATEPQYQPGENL
Sequence of Grb2 SH2 (P62993 whole entry, looked up): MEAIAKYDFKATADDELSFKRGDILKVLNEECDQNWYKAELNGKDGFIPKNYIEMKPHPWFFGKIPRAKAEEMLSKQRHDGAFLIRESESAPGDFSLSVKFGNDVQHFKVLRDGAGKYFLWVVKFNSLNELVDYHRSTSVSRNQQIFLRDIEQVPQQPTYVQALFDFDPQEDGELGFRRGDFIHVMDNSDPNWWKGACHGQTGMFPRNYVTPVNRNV
Sequence of EPHB2 (P29323 whole entry, looked up): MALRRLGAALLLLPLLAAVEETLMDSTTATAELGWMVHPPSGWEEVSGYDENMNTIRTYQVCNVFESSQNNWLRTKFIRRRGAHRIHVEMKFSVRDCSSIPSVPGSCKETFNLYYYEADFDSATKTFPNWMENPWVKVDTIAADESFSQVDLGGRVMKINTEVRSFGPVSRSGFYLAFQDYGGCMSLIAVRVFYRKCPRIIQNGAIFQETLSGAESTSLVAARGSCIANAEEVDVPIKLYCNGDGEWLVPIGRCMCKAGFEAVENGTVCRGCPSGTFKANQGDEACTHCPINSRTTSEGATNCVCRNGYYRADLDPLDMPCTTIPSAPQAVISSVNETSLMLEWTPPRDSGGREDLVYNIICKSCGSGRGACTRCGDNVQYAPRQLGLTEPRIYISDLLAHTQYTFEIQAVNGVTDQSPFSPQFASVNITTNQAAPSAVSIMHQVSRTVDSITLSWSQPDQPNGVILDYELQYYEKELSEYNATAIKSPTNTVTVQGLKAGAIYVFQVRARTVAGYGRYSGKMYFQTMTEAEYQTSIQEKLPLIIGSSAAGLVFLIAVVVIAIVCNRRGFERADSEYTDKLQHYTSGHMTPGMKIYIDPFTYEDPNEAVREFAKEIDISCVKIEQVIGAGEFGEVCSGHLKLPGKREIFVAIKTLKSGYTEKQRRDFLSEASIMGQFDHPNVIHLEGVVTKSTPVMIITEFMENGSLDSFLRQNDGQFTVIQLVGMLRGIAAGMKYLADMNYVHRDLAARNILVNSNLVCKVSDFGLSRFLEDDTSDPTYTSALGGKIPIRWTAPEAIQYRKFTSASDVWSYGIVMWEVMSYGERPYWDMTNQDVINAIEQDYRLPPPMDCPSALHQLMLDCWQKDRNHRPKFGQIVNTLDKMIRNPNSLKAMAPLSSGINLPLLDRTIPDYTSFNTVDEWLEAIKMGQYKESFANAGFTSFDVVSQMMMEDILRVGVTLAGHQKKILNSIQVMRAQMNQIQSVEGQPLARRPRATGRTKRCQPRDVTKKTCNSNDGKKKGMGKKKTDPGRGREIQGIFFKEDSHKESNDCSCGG
Sequence of EPHB1 (P54762 whole entry, looked up): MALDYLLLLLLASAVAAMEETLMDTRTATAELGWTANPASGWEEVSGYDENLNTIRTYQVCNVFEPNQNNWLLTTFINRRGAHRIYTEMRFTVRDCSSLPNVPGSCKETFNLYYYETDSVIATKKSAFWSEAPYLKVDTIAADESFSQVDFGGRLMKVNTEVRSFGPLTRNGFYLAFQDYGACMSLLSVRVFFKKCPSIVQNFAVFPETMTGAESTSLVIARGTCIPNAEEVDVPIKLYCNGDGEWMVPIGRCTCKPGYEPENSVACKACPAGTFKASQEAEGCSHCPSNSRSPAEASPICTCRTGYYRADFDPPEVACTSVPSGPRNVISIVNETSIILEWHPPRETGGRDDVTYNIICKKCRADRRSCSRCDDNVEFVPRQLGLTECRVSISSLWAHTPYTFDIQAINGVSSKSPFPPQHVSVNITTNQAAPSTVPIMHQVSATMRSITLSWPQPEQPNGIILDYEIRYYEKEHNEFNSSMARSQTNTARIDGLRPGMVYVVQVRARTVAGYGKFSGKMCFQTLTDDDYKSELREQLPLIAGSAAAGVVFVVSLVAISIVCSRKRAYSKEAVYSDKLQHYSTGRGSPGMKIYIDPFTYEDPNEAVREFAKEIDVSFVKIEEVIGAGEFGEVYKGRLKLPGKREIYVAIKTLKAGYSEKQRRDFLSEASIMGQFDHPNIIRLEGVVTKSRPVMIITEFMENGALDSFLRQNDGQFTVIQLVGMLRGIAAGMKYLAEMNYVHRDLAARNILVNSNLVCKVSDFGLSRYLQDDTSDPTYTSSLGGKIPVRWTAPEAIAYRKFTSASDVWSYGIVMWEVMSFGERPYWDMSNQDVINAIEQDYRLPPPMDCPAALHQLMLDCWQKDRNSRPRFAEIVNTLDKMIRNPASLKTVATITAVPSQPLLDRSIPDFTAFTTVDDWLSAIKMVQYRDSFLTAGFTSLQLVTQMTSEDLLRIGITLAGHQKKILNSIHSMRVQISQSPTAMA
Sequence of Jak2 (O60674 whole entry, looked up): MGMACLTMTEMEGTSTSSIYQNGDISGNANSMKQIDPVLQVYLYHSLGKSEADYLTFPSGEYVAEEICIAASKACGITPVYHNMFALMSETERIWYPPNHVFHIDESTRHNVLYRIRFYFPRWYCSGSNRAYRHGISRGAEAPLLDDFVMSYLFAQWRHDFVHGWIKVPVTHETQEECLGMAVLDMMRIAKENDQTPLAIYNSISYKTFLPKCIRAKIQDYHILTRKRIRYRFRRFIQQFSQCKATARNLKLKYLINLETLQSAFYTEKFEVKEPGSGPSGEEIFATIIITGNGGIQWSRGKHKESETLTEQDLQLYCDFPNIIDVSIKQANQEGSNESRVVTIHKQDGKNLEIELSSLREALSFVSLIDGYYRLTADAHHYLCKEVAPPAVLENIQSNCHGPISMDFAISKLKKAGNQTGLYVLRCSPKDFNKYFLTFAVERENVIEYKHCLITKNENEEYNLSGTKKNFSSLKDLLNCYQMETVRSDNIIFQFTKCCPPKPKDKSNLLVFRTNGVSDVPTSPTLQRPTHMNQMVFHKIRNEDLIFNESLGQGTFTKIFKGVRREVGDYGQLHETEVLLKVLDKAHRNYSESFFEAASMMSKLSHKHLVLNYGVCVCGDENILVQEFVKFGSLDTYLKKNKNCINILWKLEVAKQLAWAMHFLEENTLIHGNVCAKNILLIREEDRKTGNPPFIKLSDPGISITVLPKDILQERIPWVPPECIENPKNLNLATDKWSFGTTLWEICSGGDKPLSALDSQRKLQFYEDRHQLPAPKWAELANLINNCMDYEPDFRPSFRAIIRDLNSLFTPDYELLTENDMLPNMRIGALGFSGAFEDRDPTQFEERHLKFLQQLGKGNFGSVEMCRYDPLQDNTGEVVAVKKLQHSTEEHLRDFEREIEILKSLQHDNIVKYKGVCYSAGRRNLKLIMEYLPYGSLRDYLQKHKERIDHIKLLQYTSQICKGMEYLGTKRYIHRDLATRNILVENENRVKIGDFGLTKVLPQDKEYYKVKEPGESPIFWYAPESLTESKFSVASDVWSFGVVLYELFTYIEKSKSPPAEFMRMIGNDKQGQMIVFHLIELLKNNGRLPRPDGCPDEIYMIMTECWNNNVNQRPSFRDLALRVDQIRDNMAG
Sequence of MERTK (Q12866 whole entry, looked up): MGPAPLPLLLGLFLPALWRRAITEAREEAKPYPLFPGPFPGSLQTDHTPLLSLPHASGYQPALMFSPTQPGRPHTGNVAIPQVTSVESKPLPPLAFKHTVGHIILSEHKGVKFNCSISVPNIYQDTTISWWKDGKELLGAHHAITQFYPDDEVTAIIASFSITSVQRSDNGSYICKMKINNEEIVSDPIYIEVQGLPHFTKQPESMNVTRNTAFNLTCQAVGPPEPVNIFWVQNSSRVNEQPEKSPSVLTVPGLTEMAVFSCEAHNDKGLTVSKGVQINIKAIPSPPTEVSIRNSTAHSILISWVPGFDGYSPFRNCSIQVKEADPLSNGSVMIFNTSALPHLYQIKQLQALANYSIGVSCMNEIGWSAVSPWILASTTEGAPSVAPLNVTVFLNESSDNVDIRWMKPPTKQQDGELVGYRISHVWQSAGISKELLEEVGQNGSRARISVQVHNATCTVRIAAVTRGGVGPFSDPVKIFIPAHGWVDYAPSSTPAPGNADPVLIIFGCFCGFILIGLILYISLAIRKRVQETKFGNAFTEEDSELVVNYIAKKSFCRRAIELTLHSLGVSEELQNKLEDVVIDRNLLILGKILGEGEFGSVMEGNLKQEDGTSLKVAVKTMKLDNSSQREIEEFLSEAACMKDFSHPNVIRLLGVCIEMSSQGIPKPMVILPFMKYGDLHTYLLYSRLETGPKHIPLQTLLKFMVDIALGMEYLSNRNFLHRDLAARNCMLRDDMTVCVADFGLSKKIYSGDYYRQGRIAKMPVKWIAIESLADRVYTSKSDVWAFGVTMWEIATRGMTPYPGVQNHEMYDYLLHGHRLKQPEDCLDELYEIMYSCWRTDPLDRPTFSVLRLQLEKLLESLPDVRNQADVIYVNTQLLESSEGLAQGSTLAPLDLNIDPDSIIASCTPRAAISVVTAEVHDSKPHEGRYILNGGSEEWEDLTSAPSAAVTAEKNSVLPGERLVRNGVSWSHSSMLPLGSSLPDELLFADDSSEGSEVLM

Sequence	SH2 binding enrichment (c-Src SH2)	SH2 binding enrichment (Grb2 SH2)	SH2 binding enrichment (SHP2-C SH2)	phosphorylation enrichment (EPHB1)	phosphorylation enrichment (EPHB2)	phosphorylation enrichment (Hck)	phosphorylation enrichment (Fyn)	phosphorylation enrichment (c-Src)	phosphorylation enrichment (Fes)	phosphorylation enrichment (c-Abl (mouse))	phosphorylation enrichment (Jak2)	phosphorylation enrichment (FGFR1)	phosphorylation enrichment (MERTK)	phosphorylation enrichment (FGFR3)	phosphorylation enrichment (Fer (mouse))	phosphorylation enrichment (AncSZ)
DTKAFYPEEIS [HSPA1A_Y115_E110D]	0.445	0.927	0.574	0.456	0.579	0.393	0.441	0.523	1.1	0.752	0.933	0.482	0.432	0.88	0.479	1.05
LQTYRYHGLSM [PDHA1_Y289_H292L]	0.399	1.25	0.815	0.673	0.746	0.648	0.703	0.471	1.13	0.564	0.576	0.749	0.443	0.915	0.572	0.927
KNKLNYTLPQD [NRAP_Y523]	0.648	0.944	0.834	0.409	0.436	0.406	0.372	0.35	0.523	0.468	0.567	0.419	0.347	0.451	0.39	0.584
NPQKSYFICLY [WAS_Y83_R86C]	0.412	1.11	0.66	0.675	0.604	0.438	0.443	0.415	1.2	0.925	1.12	0.848	0.557	0.975	0.496	1.11
LQTFHYHGHSM [PDHA1_Y289_R288H_YF]	1.27	1.47	1.47	0.322	0.448	0.533	0.501	1.2	0.715	0.493	0.641	0.419	0.501	0.536	0.435	0.599
RRQDLYSARDL [SART1_Y249]	0.402	1.14	0.767	0.576	0.367	5.63	0.972	1.21	0.744	0.525	0.663	0.586	1.55	0.615	0.401	1.45
DLVRPYVHKIL [SF3B1_Y570]	0.679	0.849	1.16	0.519	0.586	0.449	0.703	0.43	0.743	0.539	0.55	0.466	0.504	0.566	0.534	0.636
ARKCKYFKKHE [NFIX_Y40_R38C]	0.646	1.1	0.847	0.452	0.403	0.48	0.463	0.545	0.974	0.75	0.596	0.428	0.486	0.565	0.443	0.619
KLNNEYLELNF [MME_Y497_YF]	0.488	0.722	0.751	0.844	0.715	1.06	0.757	0.843	1.04	0.778	1.1	4.77	0.503	3.38	0.552	1.16
QNTADYYDLYG [PTPN11_Y62_G60A]	0.7	1.25	0.739	12.4	11.9	3.94	4.14	4.18	1.02	0.722	2.14	15.3	1.68	14.1	0.762	2.62
FAKTQYPDVYA [CRX_Y63]	0.418	0.963	1	0.474	0.526	0.653	0.469	0.486	0.692	0.652	0.52	0.533	0.346	0.478	0.4	0.628
LTDTVYSSSSA [OR4C12_Y71_I67T]	0.349	1.07	0.899	0.323	0.374	1.93	2.53	2.33	1.15	0.911	1.09	0.694	0.58	0.586	1.69	1.12
GSTLSYFGLAT [P2RX7_Y343_A348T]	0.595	0.893	0.751	0.635	0.5	0.687	0.639	0.595	0.912	0.998	5.4	1.36	0.637	1.36	0.545	1.09
NGRTGYVLQPE [PLCG2_Y1036]	0.496	0.793	0.644	0.435	0.384	0.474	0.448	0.416	0.757	0.494	0.566	0.383	0.399	0.431	0.466	0.588
SQAPGYSFTAA [CYCS_Y47_G42S_YF]	0.437	0.701	0.577	0.433	0.465	0.362	0.443	0.414	0.701	0.764	0.673	0.417	0.49	0.53	0.546	0.673
DSGKLYALDGL [INO80_Y1104_V1108G]	0.567	0.92	0.525	0.723	0.833	0.828	0.763	1.17	1.02	0.699	0.912	0.581	2.2	0.715	0.719	0.829
NDKLRYEVSSP [CDH13_Y66]	0.473	0.711	0.567	0.473	0.502	0.502	0.421	0.438	1.01	0.692	0.884	0.475	0.451	0.615	0.443	1.14

Sequence	SH2 binding enrichment (c-Src SH2)	SH2 binding enrichment (Grb2 SH2)	SH2 binding enrichment (SHP2-C SH2)	phosphorylation enrichment (EPHB1)	phosphorylation enrichment (EPHB2)	phosphorylation enrichment (Hck)	phosphorylation enrichment (Fyn)	phosphorylation enrichment (c-Src)	phosphorylation enrichment (Fes)	phosphorylation enrichment (c-Abl (mouse))	phosphorylation enrichment (Jak2)	phosphorylation enrichment (FGFR1)	phosphorylation enrichment (MERTK)	phosphorylation enrichment (FGFR3)	phosphorylation enrichment (Fer (mouse))	phosphorylation enrichment (AncSZ)
KNITEYCRHLI [RECQL_Y492_D495H]	0.612	0.812	0.773	0.51	0.436	0.455	0.433	0.477	0.855	0.654	0.88	0.526	0.43	0.533	0.533	0.726
RDLTHYLMKIL [ACTG1_Y188_D187H]	1.6	1.64	1.54	1.05	0.804	1.06	0.756	0.463	1.12	0.692	0.477	0.665	0.583	0.85	0.64	1.27
LREIRYQGGNR [VWF_Y1570_V1565L]	0.454	0.835	0.504	0.385	0.518	0.469	0.756	0.488	0.636	0.653	0.643	0.671	0.52	0.551	0.537	0.796
KVALLYKPFFF [POLE_Y100_P99L_YF]	1.49	1.78	1.62	0.516	0.606	0.82	0.827	1.67	1.17	0.921	1.12	0.496	0.772	0.704	1.39	1.15
DDKQPYEKKAE [HMGB1_Y144_A149E]	0.736	1.09	0.756	0.516	0.645	0.579	0.53	0.43	1.04	0.828	0.921	0.529	0.515	0.631	0.464	1.12
HESEIYCKVCF [CSRP3_Y57_YF]	1.54	1.44	1.35	0.854	1.42	7.63	5.35	6.41	1.11	1.17	1.21	0.821	3.7	0.89	2.49	1.52
ADLAKYICENQ [ALB_Y287]	0.607	0.868	0.754	0.672	0.63	0.627	0.461	0.505	1.13	0.83	1.09	0.485	0.386	0.788	0.459	0.979
YTFTSYYMHWV [IGHV1-46_Y51]	0.613	0.978	1.1	1.84	1.27	1.3	0.771	0.952	1.71	1.06	3.85	3.64	4.16	2.89	1.78	1.64
RDMMDYMPQGV [CYP21A2_Y259_L261P]	0.391	0.909	0.8	0.921	1.28	0.578	0.636	0.596	1.36	0.912	0.986	0.799	0.681	0.823	0.937	1.41
CRAVKYLQMVD [AVPR2_Y117_G122D]	0.532	0.798	0.755	0.508	0.456	0.456	0.503	0.318	0.922	0.535	0.675	0.427	0.354	0.585	0.419	0.71
VECHPYFTQPK [AKR1D1_Y199]	0.444	0.765	0.637	0.525	0.517	0.515	0.559	0.779	1.01	0.617	0.819	0.591	0.371	0.709	0.421	0.938
SPPILYSFYLN [FCRL6_Y239_D244N]	0.824	1.63	1.69	3.78	4.36	2.06	2.18	2.87	1.12	1.5	1.22	0.807	9.41	0.882	3.7	1.21
RGSQQYRALPV [TUBB8_Y281_T285P]	0.646	0.944	1.49	0.533	0.563	0.388	0.655	0.588	0.686	0.694	0.789	0.803	0.525	0.546	0.434	0.618
SFDLDYDSVQP [MYC_Y16_N11S_YF]	0.441	0.749	0.633	0.644	0.911	0.688	0.833	0.924	1.31	0.811	1.3	0.674	0.586	0.749	0.748	1.78
QRRYVYYYSYL [PTEN_Y176]	1	1.07	3.88	1.85	1.83	3.63	3.65	4.21	1.32	1.09	5.95	6.01	9.64	4.17	0.987	1.88
FSPGSYERETF [NF1_Y2192]	0.495	0.776	0.612	0.526	0.548	0.447	0.429	0.539	0.856	0.702	0.763	0.483	0.429	0.535	0.427	0.883
